This note sets out measurements from IntAct's records for PubMed 27150041.

To fix the notation:
B1: Smu-2 suppressor of mec-8 and unc-52 protein (Caenorhabditis elegans), Q9N4U5 (parent)
chain: MADNPTNLRNADFRKLLTSARSDRPAVSAFAKPADPKTGDDKPASFKHKHLKPAKFKKPQAAAHGKAKKEKTEADEDEAALKNILKNYRDRAAERRKQGDEKEDPSKLTAAYRAVPGDARSAQDQADLRKQAILESKYLGGDLEHTHLVKGLDYSLLNKVRSEIDKSDDDDDDDIDTAFDEKVTSSSSSSKPSEASLLAQELAQSHSENRMVRSLHRVLFKNEVPLHNQLFAKGRMAYVVELEDEETDIPTTLLRSLHDLPRAESAQSIQANNLIILKLSHVLSHLRAEPKKKKKEEFRVQLGSRDAPGAAAAAPGAKGDSIYDDLDDYVPSRKSRDSRDAGRRGSRRDRSRDRSRDRDRDRDRDNRDRYFEKSANSRREEEQNRREQQRERERAEQERRREREKEREQEKAKEREKKRKELEESSGYDECYPGGLVEMGGAWDSDEEADYSKMDAGPKKNQAVNRWDFDTEEEYASYMEGREALPKAAYQYGVKNGEGGRKNKKQSAVSDAKRLDRELNEINKIMDKRKAGGDGAGGGGDYKKPKY

In this assay the parent is B1. The note with it: with smu1_caeel smu-1, G5EEG7.
Chain of smu1_caeel smu-1, G5EEG7 (G5EEG7 whole entry): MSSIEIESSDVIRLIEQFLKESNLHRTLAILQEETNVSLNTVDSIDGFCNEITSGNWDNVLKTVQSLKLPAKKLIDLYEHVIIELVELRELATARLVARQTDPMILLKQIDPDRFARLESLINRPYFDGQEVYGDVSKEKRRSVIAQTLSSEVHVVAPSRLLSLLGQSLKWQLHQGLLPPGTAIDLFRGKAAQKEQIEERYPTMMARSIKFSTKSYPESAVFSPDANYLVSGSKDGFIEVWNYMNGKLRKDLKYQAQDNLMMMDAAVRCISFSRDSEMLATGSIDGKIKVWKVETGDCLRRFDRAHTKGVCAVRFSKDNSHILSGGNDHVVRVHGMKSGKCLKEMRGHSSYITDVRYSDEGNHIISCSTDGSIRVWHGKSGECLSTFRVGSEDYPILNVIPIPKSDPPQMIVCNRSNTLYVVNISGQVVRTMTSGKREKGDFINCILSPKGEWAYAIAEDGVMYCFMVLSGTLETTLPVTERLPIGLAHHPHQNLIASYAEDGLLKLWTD
V212R: the “effect of a mutation on the interaction” value is recorded as “disrupting interaction strength”.

As to F220R, the “effect of a mutation on the interaction” value is “disrupting interaction strength”.
